# In patent US20190257837:
# T1: human recombinant nidogen-1 (intact, incubated without proteases), P14543
# T1 chain: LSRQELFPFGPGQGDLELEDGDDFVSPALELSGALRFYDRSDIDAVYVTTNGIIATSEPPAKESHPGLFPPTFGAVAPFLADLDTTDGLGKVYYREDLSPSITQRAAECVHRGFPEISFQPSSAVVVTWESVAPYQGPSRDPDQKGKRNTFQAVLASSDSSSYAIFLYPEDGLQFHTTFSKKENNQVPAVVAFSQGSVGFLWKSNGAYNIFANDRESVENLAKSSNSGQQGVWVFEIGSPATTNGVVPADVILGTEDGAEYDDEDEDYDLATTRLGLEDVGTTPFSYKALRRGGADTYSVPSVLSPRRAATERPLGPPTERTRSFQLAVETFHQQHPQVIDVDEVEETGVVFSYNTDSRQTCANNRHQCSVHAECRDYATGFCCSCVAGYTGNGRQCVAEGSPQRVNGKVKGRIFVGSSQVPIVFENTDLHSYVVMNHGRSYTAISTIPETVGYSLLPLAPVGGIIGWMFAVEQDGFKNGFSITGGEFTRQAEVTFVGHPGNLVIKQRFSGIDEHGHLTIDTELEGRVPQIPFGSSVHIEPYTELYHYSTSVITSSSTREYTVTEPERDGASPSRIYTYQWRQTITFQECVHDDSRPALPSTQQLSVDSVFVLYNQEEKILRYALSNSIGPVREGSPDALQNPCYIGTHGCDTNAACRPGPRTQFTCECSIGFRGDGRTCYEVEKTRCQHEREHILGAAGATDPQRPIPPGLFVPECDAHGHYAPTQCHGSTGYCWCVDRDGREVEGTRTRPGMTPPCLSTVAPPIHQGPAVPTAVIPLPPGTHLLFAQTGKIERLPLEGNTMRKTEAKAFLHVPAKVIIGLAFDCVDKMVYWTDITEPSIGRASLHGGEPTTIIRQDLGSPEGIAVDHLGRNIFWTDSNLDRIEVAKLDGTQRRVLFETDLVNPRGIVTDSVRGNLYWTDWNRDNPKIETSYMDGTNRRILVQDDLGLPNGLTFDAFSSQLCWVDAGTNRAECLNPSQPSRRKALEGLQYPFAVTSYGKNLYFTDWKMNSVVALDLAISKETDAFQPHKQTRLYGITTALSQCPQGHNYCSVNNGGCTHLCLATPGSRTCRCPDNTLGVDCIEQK
# B1: human recombinant cathepsin S (protein)
# chain: LPDSVDWREKGCVTEVKYQGSCGACWAFSAVGALEAQLKLKTGKLVSLSAQNLVDCSTEKYGNKGCNGGFMTTAFQYIIDNKGIDSDASYPYKAMDQKCQYDSKYRAATCSKYTELPYGREDVLKEAVANKGPVSVGVDARHPSFFLYRSGVYYEPSCTQNVNHGVLVVGYGDLNGKEYWLVKNSWGHNFGEEGYIRMARNKGNHCGIASFPSYPEI
# Target: T1, human recombinant nidogen-1 (intact, …)
protein,measurement,value
B1,NIC levels after incubating nidogen-1 with CatS (competitive NIC ELISA),Approximately 5-fold higher levels of NIC were detected after incubating nidogen-1 with CatS for 24 h
